pKd: −log10 of the molar value. Where “and” joins values, the source holds several entries; their conditions need not be identical. Equal entries are not always repeated. Where two headings read alike, the source gives them in different places.
Assays:
[1] = target: FusC(E83A) mutant, catalytically inactive (Pectobacterium (species and strain of the cloned gene not stated)); assay: ITC; ferredoxin (200 uM) titrated in 10 ul steps, 27 titrations, into the chamber with FusC(E83A) (20 uM); 20 mM HEPES, 50 mM NaCl pH 7.5; MicroCal VP-ITC; 299.15 K (Table 2); parameters from the average of the two best of three reactions
[2] = target: FusC(E83A) mutant, catalytically inactive (Pectobacterium (species and strain of the cloned gene not stated)); assay: as above; remark: listed apart in the source

“ferredoxin from the plant Arabidopsis thaliana (from UniProt P16972 53-145) (natural protein)” was tested, and the Ka [1] was 452000 M⁻¹ and 805000 M⁻¹ and 629000 M⁻¹, the pKd [1] was 5.91 and 5.76 and 5.66 and the dH [1] was -5.2 kcal/mol and -4.91 kcal/mol and -5.06 kcal/mol. The stoichiometry N [1] was 1.12 and 1.06 and 1.09 and the pKd [2] was 5.72.
